B1: PTPRD (parent)
chain: PVVSMDLDPQPITDEEEGLIWVVG

Variants of: B1
Assay: protein stability index of a GFP-peptide fusion (GPS, HEK-293T) (PSI 1-6); higher = more stable
Conditions: c terminus: a fixed tail appended
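Note: lentivirally expressed fusions sorted by FACS into six bins by GFP to DsRed ratio, PSI derived from sequencing read proportions per bin multiplied by bin number.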

| Variant | protein stability index |
| --- | --- |
| PVVSMDLDPQPITDTEEGLIWVVG [E15T] | 2.33 |
| PVVSMDLDPQPITDREEGLIWVVG [E15R] | 3.57 |
| PVVSMDLDPQPITDNEEGLIWVVG [E15N] | 3.67 |
| PVVSMDLDPQPITDQEEGLIWVVG [E15Q] | 3.77 |
| PVVSMDLDPQPITDDEEGLIWVVG [E15D] | 2.31 |
| PVVSMDLDPQPITDPEEGLIWVVG [E15P] | 3.19 |
| PVVSMDLDPQPIPDEEEGLIWVVG [T13P] | 3.36 |
| PVVSMDLDPQPILDEEEGLIWVVG [T13L] | 3.07 |
| PVVSMDLDPQPIDDEEEGLIWVVG [T13D] | 4.13 |
| PVVSMDLDPQPIADEEEGLIWVVG [T13A] | 3.87 |
| PVVSMDLDPQPINDEEEGLIWVVG [T13N] | 3.87 |
| PVVSMDLDPQPISDEEEGLIWVVG [T13S] | 3.13 |
| PVVSMDLDPQPICDEEEGLIWVVG [T13C] | 3.84 |
| PVVSMDLDPQPIIDEEEGLIWVVG [T13I] | 2.71 |
| PVVSMDLDPQPIWDEEEGLIWVVG [T13W] | 2.47 |
| PVVSMDLDPQPIVDEEEGLIWVVG [T13V] | 3.58 |
| PVVSMDLDPQPIYDEEEGLIWVVG [T13Y] | 2.9 |
| PVVSMDLDPQPITDEFEGLIWVVG [E16F] | 1.07 |
| PVVSMDLDPQPITDEPEGLIWVVG [E16P] | 2.79 |
| PVVSMDLDPQPITDEWEGLIWVVG [E16W] | 2.27 |
| PVVSMDLDPQPITDESEGLIWVVG [E16S] | 3.36 |
| PVVSMDLDPQPITDEHEGLIWVVG [E16H] | 3.2 |
| PVVSMDLDPQPITDEYEGLIWVVG [E16Y] | 2.79 |
| PVVSMDLDPQPITDEAEGLIWVVG [E16A] | 3.22 |

| Variant | protein stability index |
| --- | --- |
| PVVSMDLDPQPITDEVEGLIWVVG [E16V] | 1.5 |
| PVVSMDLDPQPITDETEGLIWVVG [E16T] | 2.87 |
| PVVSMDLDPQPITDEDEGLIWVVG [E16D] | 4.08 |
| PVVSMDLDPQPITDEQEGLIWVVG [E16Q] | 3.79 |
| PVVSMDLDPQPITDECEGLIWVVG [E16C] | 1.94 |
| PVVSMDLEPQPITDEEEGLIWVVG [D8E] | 3.92 |
| PVVSMDLIPQPITDEEEGLIWVVG [D8I] | 2.53 |
| PVVSMDLCPQPITDEEEGLIWVVG [D8C] | 2.61 |
| PVVSMDLMPQPITDEEEGLIWVVG [D8M] | 3.29 |
| PVVSMDLPPQPITDEEEGLIWVVG [D8P] | 3.56 |
| PVVSMDLAPQPITDEEEGLIWVVG [D8A] | 3.73 |
| PVVSMDLGPQPITDEEEGLIWVVG [D8G] | 3.8 |
| PVVSMDLTPQPITDEEEGLIWVVG [D8T] | 3.61 |
| PVVSMDLLPQPITDEEEGLIWVVG [D8L] | 3.31 |
| PVVSMDLNPQPITDEEEGLIWVVG [D8N] | 3.55 |
| PVVSMDLYPQPITDEEEGLIWVVG [D8Y] | 2.74 |
| PVVSMDLVPQPITDEEEGLIWVVG [D8V] | 3.25 |
| PVVSMDLHPQPITDEEEGLIWVVG [D8H] | 2.1 |
| PVVSMDLWPQPITDEEEGLIWVVG [D8W] | 2.52 |
| PVVSMDLDPQPITDEEDGLIWVVG [E17D] | 4.26 |
| PVVSMDLDPQPITDEEVGLIWVVG [E17V] | 1.75 |
| PVVSMDLDPQPITDEENGLIWVVG [E17N] | 3.37 |
| PVVSMDLDPQPITDEEYGLIWVVG [E17Y] | 1.38 |
| PVVSMDLDPQPITDEECGLIWVVG [E17C] | 2.25 |

| Variant | protein stability index |
| --- | --- |
| PVVSMDLDPQPITDEEQGLIWVVG [E17Q] | 4.18 |
| PVVSMDLDPQPITDEEGGLIWVVG [E17G] | 3.34 |
| PVVSMDLDPQPITDEERGLIWVVG [E17R] | 2.75 |
| PVVSMDLDPQPITDEEAGLIWVVG [E17A] | 2.26 |
| PVVSMDLDPQPITDEELGLIWVVG [E17L] | 2.56 |
| PVVSMDLDPQPITDEESGLIWVVG [E17S] | 2.88 |
| PVVSMDLDPQPITDEEPGLIWVVG [E17P] | 2.38 |
| PVVSMDLDPQPITDEETGLIWVVG [E17T] | 3.31 |
| PVVSMDLDPQPITDEEIGLIWVVG [E17I] | 1.8 |
| PVVSMDLDPQPITDEEKGLIWVVG [E17K] | 3.12 |
| PVVSMDLDPQPITDEEMGLIWVVG [E17M] | 1.69 |
| PVVSMDLDPQPITDEEEGLLWVVG [I20L] | 2.99 |
| PVVSMDLDPQPITDEEEGLGWVVG [I20G] | 4.92 |
| PVVSMDLDPQPITDEEEGLEWVVG [I20E] | 5.35 |
| PVVSMDLDPQPITDEEEGLNWVVG [I20N] | 4.31 |
| PVVSMDLDPQPITDEEEGLDWVVG [I20D] | 4.8 |
| PVVSMDLDPQPITDEEEGLPWVVG [I20P] | 5.16 |
| PVVSMDLDPQPITDEEEGLKWVVG [I20K] | 4.64 |
| PVVSMDLDPQPITDEEEGLHWVVG [I20H] | 4.32 |
| PVVSMDLDPQPITSEEEGLIWVVG [D14S] | 4.05 |
| PVVSMDLDPQPITEEEEGLIWVVG [D14E] | 3.78 |
| PVVSMDLDPQPITIEEEGLIWVVG [D14I] | 4.15 |
| PVVSMDLDPQPITLEEEGLIWVVG [D14L] | 2.06 |
| PVVSMDLDPQPITGEEEGLIWVVG [D14G] | 3.87 |

| Variant | protein stability index |
| --- | --- |
| PVVSMDLDPQPITAEEEGLIWVVG [D14A] | 2.58 |
| PVVSMDLDPQPITYEEEGLIWVVG [D14Y] | 2.27 |
| PVVSMDLDPQPITNEEEGLIWVVG [D14N] | 3.9 |
| PVVSMDLDPQPITCEEEGLIWVVG [D14C] | 2.9 |
| PVVSMDLDPQPITFEEEGLIWVVG [D14F] | 2.14 |
| PVVSMDLDPQPITMEEEGLIWVVG [D14M] | 2.36 |
| PVVSMDLDPQPITREEEGLIWVVG [D14R] | 2.31 |
| PVVSMDLDPYPITDEEEGLIWVVG [Q10Y] | 2.92 |
| PVVSMDLDPNPITDEEEGLIWVVG [Q10N] | 3.42 |
| PVVSMDLDPIPITDEEEGLIWVVG [Q10I] | 4.09 |
| PVVSMDLDPLPITDEEEGLIWVVG [Q10L] | 3.74 |
| PVVSMDLDPMPITDEEEGLIWVVG [Q10M] | 3.88 |
| PVVSMDLDPWPITDEEEGLIWVVG [Q10W] | 3.8 |
| PVVSMDLDPSPITDEEEGLIWVVG [Q10S] | 2.77 |
| PVVSMDLDPRPITDEEEGLIWVVG [Q10R] | 3.89 |
| PVVSMDLDPTPITDEEEGLIWVVG [Q10T] | 3.73 |
| PVVSMDLDPKPITDEEEGLIWVVG [Q10K] | 3.76 |
| PVVSMDLDPDPITDEEEGLIWVVG [Q10D] | 4.27 |
| PVVSMDLDPCPITDEEEGLIWVVG [Q10C] | 3.08 |
| PVVSMDLDPPPITDEEEGLIWVVG [Q10P] | 3.75 |
| PVVSMDLDPAPITDEEEGLIWVVG [Q10A] | 3.56 |
| PVVSMDLDPGPITDEEEGLIWVVG [Q10G] | 3.99 |

From the supplement of paper PMC10567573
